Measurements reported in patent US6451992.

Tested on: thrombostasin (thrombin inhibitor of Haematobia irritans saliva; tested as whole serotonin-induced saliva)

bovine thrombin was tested. Which “rates of hydrolysis of chromogenic substrate S238 (2.5-100 µM) by bovine thrombin (250 pM) alone and in the presence of horn fly saliva (equivalent to 2 flies)” value did it give?
The value was “it may be a competitive inhibitor, as its effect is diminished when substrate is unlimited (100 µM)”.
